Laboratory results as given in patent US20080249606A1 (published 2008).

Legend:
[1] = target: T1, Blocking Reagent (catalogue number 11112589001, Roche Diagnostics) immobilized in ELISA wells; assay: ELISA, Blocking Reagent on Costar 2595 plate
T1 construct: One molecule for all four plate types; The plate is named under assay in each row

[2] = target: T1, Blocking Reagent (catalogue number …); assay: ELISA, Blocking Reagent on Nunc Immobilizer Amino plate
[3] = target: T1, Blocking Reagent (catalogue number …); assay: ELISA, Blocking Reagent on Greiner Microlon high-binding plate
[4] = target: T1, Blocking Reagent (catalogue number …); assay: ELISA, Blocking Reagent on Costar 9102 plate (second experiment, FIG. 2M)
[5] = target: T1, Blocking Reagent (catalogue number …); assay: ELISA, Blocking Reagent on Costar 9102 plate, tPA concentration series in PBS pH 7.3 with 10 mM εACA
[6] = target: T2, BSA incubated overnight with dextran sulphate 500,000 Da (DXS500k) (bovine, UniProt P02769 25-607); assay: ELISA, protein/DXS500k mixture immobilized on Greiner Microlon plate, tPA in 10 mM εACA, detection with antibody 374b
T2 construct: Same protein as m3, misfolded by contact with DXS500k (a non-protein polymer present in the mixture); also called BSA with DXS500k; DXS500k-protein mixture
T2 sequence (P02769 25-607 limits assumed): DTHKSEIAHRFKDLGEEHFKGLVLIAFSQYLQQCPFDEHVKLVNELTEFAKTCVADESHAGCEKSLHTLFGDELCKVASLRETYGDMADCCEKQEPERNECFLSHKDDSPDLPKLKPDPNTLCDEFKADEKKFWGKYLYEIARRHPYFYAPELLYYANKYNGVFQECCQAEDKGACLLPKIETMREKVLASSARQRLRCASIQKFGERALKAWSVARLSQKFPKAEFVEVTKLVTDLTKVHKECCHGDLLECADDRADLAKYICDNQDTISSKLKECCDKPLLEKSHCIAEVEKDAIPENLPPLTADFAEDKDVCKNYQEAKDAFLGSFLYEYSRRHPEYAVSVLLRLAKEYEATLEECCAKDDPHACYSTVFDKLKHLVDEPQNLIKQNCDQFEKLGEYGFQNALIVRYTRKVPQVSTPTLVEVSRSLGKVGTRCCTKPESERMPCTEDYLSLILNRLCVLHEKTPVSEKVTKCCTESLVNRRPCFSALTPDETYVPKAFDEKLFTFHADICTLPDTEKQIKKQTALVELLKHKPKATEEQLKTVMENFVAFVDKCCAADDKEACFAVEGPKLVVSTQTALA

Kd [1]: 30 nM
Kd [2]: 39 nM
Kd [3]: 23000 nM
Kd [4]: ~0.5 nM
Kd [5]: 0.6 nM
factor of increase of tPA binding against the protein incubated with buffer only [6]: 1.3 fold
B1: tissue-type plasminogen activator (tPA, Actilyse, Boehringer-Ingelheim) (enzyme, UniProt P00750 36-562, looked up)
chain: SYQVICRDEKTQMIYQQHQSWLRPVLRSNRVEYCWCNSGRAQCHSVPVKSCSEPRCFNGGTCQQALYFSDFVCQCPEGFAGKCCEIDTRATCYEDQGISYRGTWSTAESGAECTNWNSSALAQKPYSGRRPDAIRLGLGNHNYCRNPDRDSKPWCYVFKAGKYSSEFCSTPACSEGNSDCYFGNGSAYRGTHSLTESGASCLPWNSMILIGKVYTAQNPSAQALGLGKHNYCRNPDGDAKPWCHVLKNRRLTWEYCDVPSCSTCGLRQYSQPQFRIKGGLFADIASHPWQAAIFAKHRRSPGERFLCGGILISSCWILSAAHCFQERFPPHHLTVILGRTYRVVPGEEEQKFEVEKYIVHKEFDDDTYDNDIALLQLKSDSSRCAQESSVVRTVCLPPADLQLPDWTECELSGYGKHEALSPFYSERLKEAHVRLYPSSRCTSQHLLNRTVTDNMLCAGDTRSGGPQANLHDACQGDSGGPLVCLNDGRMTLVGIISWGLGCGQKDVPGVYTKVTNYLDWIRDNMRP
notes: Bought drug product
